Measured values: patent publication US10221215 (NEW YORK UNIVERSITY, dated 2019)
Positions of bridges follow the written chain, without caps; N, C: chain ends. Non-standard residues stand in square brackets, D forms with d. No end group written: not given here. Aib = CC(C)(N)C(=O)O

B1: HBS 6 (peptide)
peptide: FEGIYRTELLKAEEAN
modifications: staple (positions not given here); also: HBS: N-terminal main-chain i,i+4 H-bond replaced by C-C bond (ring-closing metathesis), residues 1-4
B2: HBS 13 (peptide)
peptide: FEAIYRLELLKAEEAN
modifications: staple (positions not given here); also: HBS: N-terminal main-chain i,i+4 H-bond replaced by C-C bond (ring-closing metathesis), residues 1-4
B3: HBS 7^mut (peptide)
peptide: AEGIYRLELLKAEAAA
modifications: staple (positions not given here); also: HBS: N-terminal main-chain i,i+4 H-bond replaced by C-C bond (ring-closing metathesis), residues 1-4
B4: HBS 9 (peptide)
peptide: FEGLLRLWLRK[Aib]EEAN
modifications: staple (positions not given here); not fully specified (C-terminus, bridges); also: hydrogen bond surrogate: N-terminal main-chain i,i+4 H-bond replaced by C-C bond
B5: HBS 16 (peptide)
peptide: FEGIYRLEKLKAEEANRR
modifications: staple (positions not given here); also: HBS: N-terminal main-chain i,i+4 H-bond replaced by C-C bond (ring-closing metathesis), residues 1-4
B6: HBS 7 (peptide)
peptide: FEGIYRLELLKAEEAN
modifications: staple (positions not given here); also: HBS: N-terminal main-chain i,i+4 H-bond replaced by C-C bond (ring-closing metathesis), residues 1-4
B7: HBS 11 (peptide)
peptide: FEGIYRLELLK[Aib]EE[Aib]N
modifications: staple (positions not given here); not fully specified (C-terminus, bridges); also: hydrogen bond surrogate: N-terminal main-chain i,i+4 H-bond replaced by C-C bond
B8: HBS 10 (peptide)
peptide: FEGLLRLWLRK[Aib]EE[Aib]N
modifications: staple (positions not given here); not fully specified (C-terminus, bridges); also: hydrogen bond surrogate: N-terminal main-chain i,i+4 H-bond replaced by C-C bond
B9: HBS 15^ (peptide)
peptide: FEAIYRLEKLKAEEAN
modifications: staple (positions not given here); lactam 9-13; also: HBS: N-terminal main-chain i,i+4 H-bond replaced by C-C bond (ring-closing metathesis), residues 1-4
B10: HBS 8 (peptide)
peptide: FEGIYRLELLK
modifications: staple (positions not given here); also: HBS: N-terminal main-chain i,i+4 H-bond replaced by C-C bond (ring-closing metathesis), residues 1-4
B11: HBS 12 (peptide)
peptide: FEGLLRLWLRKAEEAN
modifications: staple (positions not given here); also: HBS: N-terminal main-chain i,i+4 H-bond replaced by C-C bond (ring-closing metathesis), residues 1-4
B12: HBS 1 (peptide)
peptide: FEGIYRTDILRTEEGN
modifications: staple (positions not given here); also: HBS: N-terminal main-chain i,i+4 H-bond replaced by C-C bond (ring-closing metathesis), residues 1-4

Biological target: Ras (residues 1-166 of human Ha-Ras) (human, UniProt P01112 1-166)
Assay: cell-based or functional assay

Binder | % Inhibition (Sos-mediated nucleotide exchange from Ras, mantGDP) [%]
B1 | 40
B2 | 50
B3 | 15
FEGIYRTDILR [Peptide 5] | < 10
FEAIYRLEKLKAEEAN [Peptide 15] | 50
FEGIYRTELLKAEEAN [Peptide 6] | 20
FEAIYRLELLKAEEAN [Peptide 13] | 40
FGEGIYRTDILRTEEGN [Peptide 2] | < 10
B4 | 35
FEGIYRTDILRTEEGN [Peptide 1] | 13
FEGLLRLWLRKAEEAN [Peptide 12] | 50
FEGIYRLELLK[Aib]EE[Aib]N [Peptide 11] | 30
B5 | 56
B6 | 64
AEGIYRADILRTEEGN [Peptide 4] | < 10
B7 | 20
B8 | 60
AEGIYRTDILRTEEGN [Peptide 3] | < 10
FEGLLRLWLRK[Aib]EE[Aib]N [Peptide 10] | 50
FEGIYRLELLK [Peptide 8] | < 5
B9 | < 10
B10 | < 5
B11 | 55
B12 | 11
FEGIYRLELLKAEEAN [Peptide 7] | 37
